Assay [1] relates to ICAM-R. In words: Epitope mapping by domain substitution/deletion (summary). Type of assay: binding, human. Here is the method:
Fusion 81 was screened by ELISA on COS cells transiently transfected with either a domain 1 deleted ICAM-R construct [Example 15.C.1] or with an ICAM-2 construct. The transfected cells were paraformaldehyde fixed on 96-well plates, and the remainder of the assay was performed as previously described, except no Tween 20 was used. The wells that were positive for domain 1 deleted ICAM-R but negative for ICAM-2, were tested on Cos cells transiently transfected with domain 1 deleted ICAM-R or domain 3 deleted ICAM-R by ELISA.
For the anti-ICAM-R monoclonal antibody binding assay, COS cells transfected with constructs encoding the ICAM-R chimeric proteins or control constructs were removed from the plates by EDTA treatment and aliquoted at 2.5×10^5 cells per well in a 96-well round bottom plate. Cells were washed 3 times with ice cold washing buffer (PBS containing 1% BSA and 0.05% sodium azide). […] The samples were analyzed on a Becton-Dickinson FACScan instrument. […]
Table 11 below is a summary of certain characteristics of ICAM-R specific monoclonal antibodies of the invention which have been specifically described in the foregoing examples. In Table 11, the abbreviation “NC” stands for “not conclusive” and the abbreviation “ND” stands for “not determined.” The antibodies marked with an asterisk in Table 11 enhanced activation at low concentrations.

Another assay has as its system CEM cells. Briefly: Detergent resistance (cytoskeleton association) assay, CEM. The format is cell-based, human. The procedure: PBL or washed CEM cell suspensions ([…]) were dispensed into Falcon 12×75 mm tubes in ice-cold PBS-5% FBS, pelleted, and resuspended in 50 μl of FITC-conjugated anti-ICAM-R monoclonal antibody 26E3D-1 or 26I10E-2 adjusted to saturating concentration in the same buffer. Antibody binding was permitted to proceed for 30 minutes on ice, afterwhich unbound antibody was removed by pelleting cells which had first been resuspended in 1 ml of […] through an underlaid cushion (0.7 ml) of neat (undiluted) FBS.
For groups stained with FITC-conjugated monoclonal antibody only, the 1 ml suspension was divided into two equal parts, each of which was separately underlaid with FBS, centrifuged, and the supernatant removed by aspiration. Cell pellets were then resuspended in 200 ul of control buffer (13 mM Tris pH 8.0, 150 mM NaCl, 2 mM MgCl2, 2 mM EGTA, 2% FBS, 2.5 ug/ml aprotinin, 1 mM PMSF, 10 mM iodoacetamide) or detergent buffer [0.5% NP-40 (v/v) (US Biochemical, Cleveland, Ohio) in control buffer] and held for 20 minutes at room temperature, or overnight at 4° C., prior to FACS analysis. For groups in which cell surface-bound monoclonal antibody was crosslinked with secondary antibodies, following the first antibody staining step, washed cell pellets were resuspended in 50 ul of FITC-goat anti-mouse IgG (Sigma) diluted 1:100 in PBS-5% FCS and incubated for 30 minutes on ice. […]

A further assay addresses T1, ICAM-1 (Homo sapiens, UniProt P05362).
T1 construct: express the full length ICAM-1 and ICAM-R proteins, respectively; expressed in transfected cells; host or cells: COS cells, DEAE-dextran, plasmid pcDNA1AmpICAM-1
Briefly: FACS binding to COS cell transfectants. The conditions noted are these: antibody 5.0 ug/ml. Here is the method:
(§1) For the anti-ICAM-R monoclonal antibody binding assay, COS cells transfected with constructs encoding the ICAM-R chimeric proteins or control constructs were removed from the plates by EDTA treatment and aliquoted at 2.5×10^5 cells per well in a 96-well round bottom plate. Cells were washed 3 times with ice cold washing buffer (PBS containing 1% BSA and 0.05% sodium azide). Anti-ICAM-R monoclonal antibody was applied at 5.0 ug/ml in 50 ul final volume and incubated on ice for 30 minutes. Cells were then washed three times with cold washing buffer and incubated with the FITC labeled secondary antibody (sheep anti-mouse IgG F(ab′)2) at a 1:100 dilution on ice for 30 minutes in dark in 50 ul final volume. After the incubation, cells were washed again for three times in the ice cold washing buffer and resuspended in 200 ul of 1% paraformaldehyde. The samples were analyzed on a Becton-Dickinson FACScan instrument. Results of the assay are given below in Table 5 as percent positive COS cell transfectants, wherein MOPC 21 (IgG1) and UPC 10 (IgG2a) are isotype matched controls, 18E3D is an ICAM-1 specific monoclonal antibody and ICR-1.1 to ICR-9.2 are ICAM-R specific monoclonal antibodies. The reactivities of monoclonal antibodies ICR-1.1 through ICR-9.2 were assayed in a different experiment than monoclonal antibodies ICR-12.1 through ICR-17.1.

Assay [2] concerns the target T2, ICAM-R (Homo sapiens, UniProt P32942).
T2 construct: express the full length ICAM-1 and ICAM-R proteins, respectively; expressed in transfected cells; host or cells: COS cells, DEAE-dextran, plasmid pcDNA1AmpICAM-R
T2 sequence (P32942 30-547): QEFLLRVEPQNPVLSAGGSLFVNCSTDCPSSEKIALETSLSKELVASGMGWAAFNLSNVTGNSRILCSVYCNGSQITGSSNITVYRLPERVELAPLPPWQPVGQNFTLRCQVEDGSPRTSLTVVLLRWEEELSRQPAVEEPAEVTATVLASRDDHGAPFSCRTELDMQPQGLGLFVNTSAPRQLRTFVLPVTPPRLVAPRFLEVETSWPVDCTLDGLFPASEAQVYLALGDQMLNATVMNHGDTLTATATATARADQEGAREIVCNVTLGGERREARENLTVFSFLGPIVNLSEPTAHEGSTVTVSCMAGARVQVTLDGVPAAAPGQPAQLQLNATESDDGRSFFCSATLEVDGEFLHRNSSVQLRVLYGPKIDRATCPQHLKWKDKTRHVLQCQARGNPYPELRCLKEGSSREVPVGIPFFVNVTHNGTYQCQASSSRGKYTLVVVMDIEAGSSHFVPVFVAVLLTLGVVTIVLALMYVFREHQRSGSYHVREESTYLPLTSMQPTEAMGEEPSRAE
In words: FACS binding to COS cell transfectants. The conditions noted are these: antibody 5.0 ug/ml. Here is the method:
as §1

For the next assay, the system named is PBL. Briefly: Pre-incubation on plate-bound antibody then SEA proliferation. The format is cell-based, human. The conditions noted are these: cells moved to clean wells; SEA 10 pg/ml, 3 days. Here is the method: The minimum time required for plate-bound anti-ICAM-R to inhibit SEA-induced proliferation was also determined. PBL were pre-incubated on plate-bound ICR-4.2, ICR-1.1 or isotype-matched anti-HLA-I control antibodies B-H9 (IgG1) and I0T2 (IgG2) with or without SEA (10 ρg/ml) for 3, 5 and 7 hours. PBL were then transferred to clean wells and cultured in the presence of SEA (10 pg/ml) for 3 days.

The next assay deals with Jurkat T leukemic cells. In words: F-actin and G-actin cell content. Type of assay: cell-based, human. Here is the method: Cellular shape changes (such as cell spreading) as well as T-cell activation are associated with changes in the cytoskeletal actin network manifested by alteration of the ratio of globular actin (G-actin) to filamentous actin (F-actin). To test whether the engagement by ICAM-R antibodies of ICAM-R expressed on Jurkat T leukemic cells would induce changes in cellular actin ratios, studies measuring F-actin and G-actin cell content were carried out by methods known in the art.

Some results are limits rather than exact numbers.

The values that follow come from patent US20040248211A1, “ICAM-related protein” (priority 1992, published 2004).

T1 sequence (P05362 28-532): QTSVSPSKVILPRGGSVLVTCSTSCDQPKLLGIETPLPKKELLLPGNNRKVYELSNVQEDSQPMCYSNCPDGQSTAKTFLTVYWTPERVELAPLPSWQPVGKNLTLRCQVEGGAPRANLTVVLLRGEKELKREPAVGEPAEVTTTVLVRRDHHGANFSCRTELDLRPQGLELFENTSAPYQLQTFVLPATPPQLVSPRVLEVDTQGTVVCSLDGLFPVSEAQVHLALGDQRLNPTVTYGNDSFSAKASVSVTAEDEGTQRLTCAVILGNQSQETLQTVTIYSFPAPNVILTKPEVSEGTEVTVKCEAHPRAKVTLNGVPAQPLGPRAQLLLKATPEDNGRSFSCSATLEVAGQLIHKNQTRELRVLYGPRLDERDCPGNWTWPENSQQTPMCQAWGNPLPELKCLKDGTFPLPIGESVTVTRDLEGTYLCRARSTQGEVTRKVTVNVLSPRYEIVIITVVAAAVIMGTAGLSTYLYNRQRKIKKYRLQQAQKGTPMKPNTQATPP

B1: ICR-1.1: anti-ICAM-R monoclonal antibody, IgG2a, domain 1, ATCC HB 11053 (antibody, V domains shown)
VH: QVQLQQSGAELAKPGASVKMSCKASGYTFTVYWMHWVKQRPGQGLEWIGYINPNTDYTEYNQRFQDKATLTADKSSSTAYMQLSSLTSEDSAVYYCARWGGNSYGLDYWGQGTSVTVSS
VL: QIVLTQSPALMSASPGEKVTMTCSASSSVSYIYWYQQKPRSSPKPWIYLTSNLASGVPARFSGSGSGASYSLTISIMEAEDAATYYCQQWKSIPLTFGAGTKLELK
In the case of B1, the “Reactive Domain” value with ICAM-R [1] was 1. In the assay on CEM cells (CEM), the “greater increase in detergent resistance, crosslinked antibody” value is 2-3 fold. Moreover, in the assay on CEM cells (FITC-conjugated antibody, similar in PBL), the “ICAM-R association with cytoskeleton (detergent resistance), antibody alone” value is reported as “negligible”. Also, the “percent positive COS cell transfectants, ICAM-1” value with ICAM-1 was determined as 2.43%. Besides, the “percent positive COS cell transfectants, ICAM-R” value with ICAM-R [2] came to 54.33%. The “SEA proliferation after 3 hours pre-incubation on immobilized antibody” value in the assay on PBL is on record as “significantly reduced proliferation”. Further, the “time to peak F-actin content” value with Jurkat T leukemic cells (OKT3 plus gam, ICR-1.1 without gam) was no more than 60 min. The F-actin content entry in the assay on Jurkat T leukemic cells (OKT3 plus goat anti-mouse crosslinker (gam), ICR-1.1 without gam) is recorded as “slight transient increase in F-actin content”. The “cellular G-actin” value in the assay on Jurkat T leukemic cells (with gam crosslinker) is on record as “gradual decrease in cellular G-actin”. The “rise of F-actin content” value with Jurkat T leukemic cells (with gam crosslinker, prolonged plateau) was 75-100%.
